Source: paper PMC11832932

Molecular target: HSC70 (UniProt P11142)
Test: Flag IP, blot for HA-HSC70
Settings: reference: wild type, H2O2-treated cells; sites S371

binding against the reference: weaker
Substance: PHGDH (from UniProt O43175) S371A, H2O2-treated cells
